Assay results as given in patent US20260217760A1 (Chugai, published 2026).

How the values were obtained:
protein A [1] = target: T1, protein A (UniProt P38507 37-327); assay: HiTrap protein A HP column, pH gradient elution; size exclusion analysis
T1 construct: Immobilised on resin; also called rProtein A Sepharose Fast Flow column (GE Healthcare); HiTrap protein A HP column (GE Healthcare)

protein A [2] = target: T1, protein A; assay: HiTrap protein A HP column, pH gradient elution
protein A [3] = target: T1, protein A; assay: rProtein A Sepharose Fast Flow column, stepwise pH elution; fractions analysed by cation exchange chromatography
protein A [4] = target: T1, protein A; assay: rProtein A Sepharose Fast Flow column, elution at pH 3.6; cation exchange analysis
protein A [5] = target: T1, protein A; assay: rProtein A Sepharose Fast Flow column, elution at pH 3.6 and 2.7; cation exchange analysis

B1: homomeric antibody NTA4L-G3 (antibody, human IgG1, kappa, L234A L235A, N297A)
heavy: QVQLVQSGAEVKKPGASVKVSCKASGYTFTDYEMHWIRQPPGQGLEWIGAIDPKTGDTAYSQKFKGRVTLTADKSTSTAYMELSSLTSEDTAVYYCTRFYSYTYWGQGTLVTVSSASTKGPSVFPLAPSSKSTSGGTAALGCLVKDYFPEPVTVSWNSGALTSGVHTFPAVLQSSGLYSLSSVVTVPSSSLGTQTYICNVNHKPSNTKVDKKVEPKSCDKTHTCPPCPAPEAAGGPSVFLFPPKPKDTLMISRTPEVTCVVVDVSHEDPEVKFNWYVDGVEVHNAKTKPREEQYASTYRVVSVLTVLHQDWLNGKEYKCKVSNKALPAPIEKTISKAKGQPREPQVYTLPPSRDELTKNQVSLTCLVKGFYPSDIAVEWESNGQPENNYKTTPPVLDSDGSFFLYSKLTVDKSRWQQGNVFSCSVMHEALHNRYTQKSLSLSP
light: DVVMTQSPLSLPVTPGEPASISCRSSQSLVHSNRNTYLHWYLQKPGQSPQLLIYKVSNRFSGVPDRFSGSGSGTDFTLKISRVEAEDVGVYYCSQNTHVPPTFGQGTKLEIKRTVAAPSVFIFPPSDEQLKSGTASVVCLLNNFYPREAKVQWKVDNALQSGNSQESVTEQDSKDSTYSLSSTLTLSKADYEKHKVYACEVTHQGLSSPVTKSFNRGEC
notes: Homomeric by-product; also called NTL4L-G3
Does B1 bind (protein A [1])?
Result: no binding

B2: homomeric antibody having the H chain of the anti-GPC3 antibody (from no6) (antibody)
heavy: DVVMTQSPLSLPVTPGEPASISCRSSQSLVHSNRNTYLHWYLEKPGQSPQLLIYKVSNRFSGVPDRFSGSGSGTDFTLKISRVEAEDVGVYYCSQNTHVPPTFGQGTKLEIKSSASTKGPSVFPLAPSSKSTSGGTAALGCLVKDYFPEPVTVSWNSGALTSGVHTFPAVLQSSGLYSLSSVVTVPSSSLGTQTYICNVNHKPSNTKVDKKVEPKSCDKTHTCPPCPAPEAAGGPSVFLFPPKPKDTLMISRTPEVTCVVVDVSHEDPEVKFNWYVDGVEVHNAKTKPREEQYASTYRVVSVLTVLHQDWLNGKEYKCKVSNKALPAPIEKTISKAKGQPREPQVYTLPPSRKELTKNQVSLTCLVKGFYPSDIAVEWESNGQPENNYKTTPPVLDSDGSFFLYSKLTVDKSRWQQGNVFSCSVMHEALHNRYTQKSLSLSP
light: QVQLVQSGAEVKKPGASVKVSCKASGYTFTDYEMHWIRKPPGKGLEWIGAINPKTGDTAYSQKFKGRVTLTADKSTSTAYMELSSLTSEDTAVYYCTRFYSYTYWGRGTLVTVSSASVAAPSVFIFPPSDEQLKSGTASVVCLLNNFYPREAKVQWKVDNALQSGNSQESVTEQDSKDSTYSLSSTLTLSKADYEKHKVYACEVTHQGLSSPVTKSFNRGEC
notes: also called no6-Gh-H homomer
Does B2 bind (protein A [2])?
Result: no binding

B3: J142-z72/L180-k (antibody, human IgG4 S228P, kappa)
heavy: QVQLVQSGSELKKPGASVKVSCKASGYTFTDNNMDWVRQAPGQGLEWMGDINTRSGGSIYNEEFQDRVTMTIDKSTGTAYMELSSLRSEDTAVYYCARRRSYGYYHDEWGEGTLVTVSSASTKGPSVFPLAPCSRSTSESTAALGCLVKDYFPEPVTVSWNSGALTSGVHTFPAVLQSSGLYSLSSVVTVPSSSLGTKTYTCNVDHKPSNTKVDKRVESKYGPPCPPCPAPEFLGGPSVFLFPPKPKDTLMISRTPEVTCVVVDVSQEDPEVQFNWYVDGVEVHNAKTKPREEQFNSTYRVVSVLTVLHQDWLNGKEYKCKVSNKGLPSSIEKTISKAKGQPREPQVYTLPPSQEEMTKNQVSLTCLVKGFYPSDIAVEWESNGQPENNYKTTPPVLDSDGSFFLYSRLTVDKSRWQEGNVFSCSVMHEALHNRFTQKSLSLSP
light: DIQMTQSPSSLSASVGDRVTITCKASRNIERNLAWYQQKPGQAPELLIYSASRKESGVPDRFSGSRYGTDFTLTISSLQPEDLATYYCQQYYSPPLTFGGGTKVEIKRTVAAPSVFIFPPSDEQLKSGTASVVCLLNNFYPREAKVQWKVDNALQSGNSQESVTEQDSKDSTYSLSSTLTLSKADYEKHKVYACEVTHQGLSSPVTKSFNRGEC
notes: Homomeric by-product in culture medium of Q153-G4d/J142-z72/L180-k; also called homomeric antibody J142-z72; homomeric antibody against FX
Does B3 bind (protein A [3])?
Result: no binding

B4: J300-z107/L210-k (antibody, human IgG4 S228P, kappa)
heavy: QVQLVQSGSELKKPGASVKVSCKASGYTFTDNNMDWVRQAPGQGLEWMGDINTRSGGSIYNEEFQDRVIMTVDKSTDTAYMELSSLRSEDTAVYHCARRKSYGYYLDEWGEGTLVTVSSASTKGPSVFPLAPCSRSTSESTAALGCLVKDYFPEPVTVSWNSGALTSGVHTFPAVLQSSGLYSLSSVVTVPSSSLGTQTYTCNVDHKPSNTKVDKRVESKYGPPCPPCPAPEFLGGPSVFLFPPKPKDTLMISRTPEVTCVVVDVSQEDPEVQFNWYVDGVEVHNAKTKPREEQYNSTYRVVSVLTVLHQDWLNGKEYKCKVSNKGLPSSIEKTISKAKGQPREPQVYTLPPSQEEMTKNQVSLTCLVKGFYPSDIAVEWESNGQPENNYKTTPPVLDSDGSFFLYSKLTVDKSRWQEGNVFSCSVMHEALHNRYTQESLSLSP
light: DIQMTQSPSSLSASVGDRVTITCKASRNIERNLAWYQQKPGQAPELLIYSASRKESGVPDRFSGSRYGTDFTLTISSLQPEDIATYYCQQYSSPPLTFGGGTKVEIKRTVAAPSVFIFPPSDEQLKSGTASVVCLLNNFYPREAKVQWKVDNALQSGNSQESVTEQDSKDSTYSLSSTLTLSKADYEKHKVYACEVTHQGLSSPVTKSFNRGEC
notes: also called homomeric antibody J300-z107; homomeric antibody against FX
Does B4 bind (protein A [4])?
Result: no binding

B5: J142-z73/L180-k (antibody, human IgG4 S228P, kappa)
heavy: QVQLVQSGSELKKPGASVKVSCKASGYTFTDNNMDWVRQAPGQGLEWMGDINTRSGGSIYNEEFQDRVTMTIDKSTGTAYMELSSLRSEDTAVYYCARRRSYGYYHDEWGEGTLVTVSSASTKGPSVFPLAPCSRSTSESTAALGCLVKDYFPEPVTVSWNSGALTSGVHTFPAVLQSSGLYSLSSVVTVPSSSLGTKTYTCNVDHKPSNTKVDKRVESKYGPPCPPCPAPEFLGGPSVFLFPPKPKDTLMISRTPEVTCVVVDVSQEDPEVQFNWYVDGVEVHNAKTKPREEQFNSTYRVVSVLTVLHQDWLNGKEYKCKVSNKGLPSSIEKTISKAKGQPREPQVYTLPPSQEEMTKNQVSLTCLVKGFYPSDIAVEWESNGQPENNYKTTPPVLDSDGSFFLYSRLTVDKSRWQEGNVFSCSVMHEALHNRFTQESLSLSP
light: DIQMTQSPSSLSASVGDRVTITCKASRNIERNLAWYQQKPGQAPELLIYSASRKESGVPDRFSGSRYGTDFTLTISSLQPEDLATYYCQQYYSPPLTFGGGTKVEIKRTVAAPSVFIFPPSDEQLKSGTASVVCLLNNFYPREAKVQWKVDNALQSGNSQESVTEQDSKDSTYSLSSTLTLSKADYEKHKVYACEVTHQGLSSPVTKSFNRGEC
notes: Homomeric by-product in culture medium of Q153-z7/J142-z73/L180-k; also called homomeric antibody J142-z73; homomeric antibody against FX
Does B5 bind (protein A [5])?
Result: no binding
